Data published in PMC4786802, “Structure-Based Virtual Ligand Screening on the XRCC4/DNA Ligase IV Interface” (Scientific Reports, 2016).

Biological target: T1, XRCC4 (residues 1-336) (human, UniProt Q13426 1-336)
T1 construct: XRCC4, human, residues 1-336; The copies value of 2 rests on the introduction's words (one XRCC4 homodimer and one Lig4 monomer in the active complex), not on a measurement made here; also called X4
Assay: differential scanning fluorimetry; Lig4 C-ter and XRCC4 equimolar at 5 uM in 20 mM HEPES pH 7.5, 100 mM KCl, 2 mM EDTA, 1 mM DTT, 66 mM NDSB-195, 10% glycerol, 10X SYPRO Orange; heated from 20 to 89 °C
Conditions: both partners purified

T1 sequence (Q13426 whole entry, the tested form may be a part): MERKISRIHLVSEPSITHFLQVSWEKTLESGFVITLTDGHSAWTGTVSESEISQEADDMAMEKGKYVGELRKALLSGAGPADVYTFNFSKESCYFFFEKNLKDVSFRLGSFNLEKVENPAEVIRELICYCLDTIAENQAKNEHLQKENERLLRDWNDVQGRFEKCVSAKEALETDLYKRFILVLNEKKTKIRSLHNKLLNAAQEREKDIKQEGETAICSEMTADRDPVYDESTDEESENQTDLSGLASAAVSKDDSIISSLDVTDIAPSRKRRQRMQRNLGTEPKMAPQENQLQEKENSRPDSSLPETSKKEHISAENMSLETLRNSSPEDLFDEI

B1: WT Lig4 C-ter domain (654-911) (domain or fragment, human, UniProt P49917 654-911, looked up)
chain: KISNIFEDVEFCVMSGTDSQPKPDLENRIAEFGGYIVQNPGPDTYCVIAGSENIRVKNIILSNKHDVVKPAWLLECFKTKSFVPWQPRFMIHMCPSTKEHFAREYDCYGDSYFIDTDLNQLKEVFSGIKNSNEQTPEEMASLIADLEYRYSWDCSPLSMFRRHTVYLDSYAVINDLSTKNEGTRLAIKALELRFHGAKVVSCLAEGVSHVIIGEDHSRVADFKAFRRTFKRKFKILKESWVTDSIDKCELQEENQYLI
notes: DNA ligase IV (Lig4), human, C-terminal fragment with the two BRCT domains and the clamp domain, residues 654-911; also called Lig4 C-ter fragment; C-ter Lig4 protein; source: Escherichia coli BL21 (DE3), purified (HisTrap HP, HiTrap Q HP)
B1: binds.
